Assay results: US20090291081A1 (AbbVie / Abbott, published 2009)

T1: human IL-1α (human, UniProt P01583 113-271)
T1 sequence (looked up): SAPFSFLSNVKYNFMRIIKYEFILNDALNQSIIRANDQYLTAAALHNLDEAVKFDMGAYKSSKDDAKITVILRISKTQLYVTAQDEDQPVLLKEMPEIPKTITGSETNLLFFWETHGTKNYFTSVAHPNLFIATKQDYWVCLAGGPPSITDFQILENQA

T2: human IL-1α (human, UniProt P01583 113-271)
T2 construct: also called IL-1alpha; hIL-1α
T2 sequence (looked up): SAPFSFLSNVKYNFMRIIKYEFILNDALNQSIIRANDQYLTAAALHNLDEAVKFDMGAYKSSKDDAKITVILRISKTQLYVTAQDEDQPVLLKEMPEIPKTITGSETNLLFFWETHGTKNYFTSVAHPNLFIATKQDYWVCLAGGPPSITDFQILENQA


biological target: T1, human IL-1α; assay: cell-based or functional assay

IL-1α IC50 [nM]	Binder
1000	ABT2-65-8/ABT1-122 hu IgG1/K wt (bispecific antibody, V domains shown) VH: EVQLLESGGGLVQPGGSLRLSCAASGFTFEDYQMGWVRQAPGKGLEWVSSISAMGNRTYYADSVKGRFTISRDDSKNTLYLQMNSLRAEDTAVYYCAQNLVRMDSRRWMFDYWGQGTLVTVSS VL: DIQMTQSPSSLSASVGDRVTITCRASQPIWTELNWYQQKPGKAPKLLIYGSSSLQSGVPRFSGSGSGTDFTLTISSLQPEDFATYYCQQFAYFPATFGQGTKVEIKR
2000	ABT2-65/ABT1-122 hu IgG1/K wt (bispecific antibody, V domains shown) VH: EVQLLESGGGLVQPGGSLRLSCAASGFTFEDYQMGWVRQAPGKGLEWVSSISAMGNRTYYADSVKGRFTISRDDSKNTLYLQMNSLRAEDTAVYYCAKNLVRTQSKMWMFDYWGQGTLVTVSS VL: DIQMTQSPSSLSASVGDRVTITCRASQPIWTELNWYQQKPGKAPKLLIYGSSSLQSGVPRFSGSGSGTDFTLTISSLQPEDFATYYCQQFAYFPATFGQGTKVEIKR

biological target: human IL-1β (human, UniProt P01584 117-269); assay: cell-based or functional assay

IL-1β IC50 [nM]	Binder
2.7	ABT2-65-8/ABT1-122 hu IgG1/K wt (bispecific antibody, V domains shown) VH: EVQLLESGGGLVQPGGSLRLSCAASGFTFEDYQMGWVRQAPGKGLEWVSSISAMGNRTYYADSVKGRFTISRDDSKNTLYLQMNSLRAEDTAVYYCAQNLVRMDSRRWMFDYWGQGTLVTVSS VL: DIQMTQSPSSLSASVGDRVTITCRASQPIWTELNWYQQKPGKAPKLLIYGSSSLQSGVPRFSGSGSGTDFTLTISSLQPEDFATYYCQQFAYFPATFGQGTKVEIKR
2000	ABT2-65/ABT1-122 hu IgG1/K wt (bispecific antibody, V domains shown) VH: EVQLLESGGGLVQPGGSLRLSCAASGFTFEDYQMGWVRQAPGKGLEWVSSISAMGNRTYYADSVKGRFTISRDDSKNTLYLQMNSLRAEDTAVYYCAKNLVRTQSKMWMFDYWGQGTLVTVSS VL: DIQMTQSPSSLSASVGDRVTITCRASQPIWTELNWYQQKPGKAPKLLIYGSSSLQSGVPRFSGSGSGTDFTLTISSLQPEDFATYYCQQFAYFPATFGQGTKVEIKR

biological target: T2, human IL-1α; assay: Table 60 heading; dAbs from selection on antigen

binding result	Binder
binds	ABT1-95-A4 (other, VK dAb) VL: DIQMTQSPSSLSASVGDRVTITCRASRPGVRNLRWYQQKPGKAPKLLIYSRSFLEPGVPSRFSGSGSGTDFTLTISSLQPEDFATYHCLQGYRWPPTFGQGTKVEIKR
binds	ABT1-222 (other, VK dAb) VL: DIQMTQSPSSLSASVGDRVTITCRASQPITRNLRWYQQKPGKAPKLLIYHSSVLQSGVPSRFSGSGSGTDFTLTISSLQPEDFATYYCQQGYRWPVTFGQGTKVEIKR
binds	ABT1-122-553 (other, VK dAb) VL: DIQMTQSPSSLSASVGDRVTITCRASQPIWTELKWYQQKPGKAPKLLIYGSSSLQSGVPSRFSGSGSGTDFTLTISSLQPEDFATYYCQQFAYFPATFGQGTKVEIKR

biological target: T3, human IL-1β (human, UniProt P01584 117-269); assay: Table 60 heading; dAbs from selection on antigen
T3 construct: also called IL-1beta; hIL-1β

Binder	binding result
ABT2-65-166S (other, VH dAb) VH: EVQLLESGGGLVQPGGSLRLSCAASGFTFSDYQMGWVRQAPGKGLEWVSSISAMGGRTYYADSVKGRFTISRDNSKNTLYLQMNSLRAEDTAVYYCAQNLVRLGRSRWMFDYWGQGTLVTVSS	binds
ABT2-65-201 (other, VH dAb) VH: EVQLLESGGGLVQPGGSLRLSCVASGFTFEDYQMGWVRQAPGKGLEWVSSISAMGRRTYYADSVKGRFTISRDNSKNTLYLQMNSLRAEDTAVYYCAQNLVRLGRSRWMFDYWGQGTLVTVSS	binds
ABT2-65-B2 (other, VH dAb) VH: EVQLLESGGGLVQPGGSLRLSCVASGFTFEDYQMGWVRQAPGKGLEWVSSISAMGRRTYYADSVKGRFTISRDDSKNTLYLQMNSLRAEDTAVYYCAQNLVRLGRSRWMFDYWGQGTLVTVSS	binds
ABT2-65-203 (other, VH dAb) VH: EVQLLESGGGLVQPGGSLRLSCVASGFTFEDYQMGWVRQAPGKGLEWVSSISAMGFRTYYADSVKGRFTISRDNSKNTLYLQMNSLRAEDTAVYYCAQNLVRLGRSRWMFDYWGQGTLVTVSS	binds
ABT2-65-166SK (other, VH dAb) VH: EVQLLESGGGLVQPGGSLRLSCAASGFTFSDYQMGWVRQAPGKGLEWVSSISAMGGRTYYADSVKGRFTISRDNSKNTLYLQMNSLRAEDTAVYYCAKNLVRLGRSRWMFDYWGQGTLVTVSS	binds
ABT2-65-B3 (other, VH dAb) VH: EVQLLESGGGLVQPGGSLRLSCVASGFTFEDYQMGWVRQAPGKGLEWVSSISAMGNRAYYADSVKGRFTISRDDSKNTLYLQMNSLRAEDTAVYYCAQNLVRLGRSRWMFDYWGQGTLVTVSS	binds
ABT2-108-521 (other, VH dAb) VH: EVQLLESGGGLVQPGGSLRLSCAASGFTFAEYTMMWVRQAPGKGLEWVSRIGQDGKNTYYADSVKGRFTISRDNSKNTLYLQMNSLRAEDTAVYYCAKYTGRILGHHLFDYWGQGTLVTVSS	binds
ABT2-108-617 (other, VH dAb) VH: EVQLLESGGGLVQPGGSLRLSCAASGFTFAEYTMMWVRQAPGKGLEWVSRIGQDGKNTYYADSVKGRFTISRDNSKNTLYLQMNSLRAEDTAVYYCAKYTGRIFTHHLFDYWGQGTLVTVSS	binds
ABT2-108-534x (other, VH dAb) VH: EVQLLESGGGLVQPGGSLRLSCAASGFTFADEGMMWVRQAPGKGLEWVSRITYSGKNTYYADSVKGRFTISRDNSKNTLYLQMNSLRAEDTAVYYCAKYTGRIFSHHLFDYWGQGTLVTVSS	binds
ABT2-108-602 (other, VH dAb) VH: EVQLLESGGGLVQPGGSLRLSCAASGFTFAEEKYMWVRQAPGKGLEWVSRIGQDGKNTYYADSVKGRFTISRDNSKNTLYLQMNSLRAEDTAVYYCAKYTGRVGVHHLFDYWGQGTLVTVSS	binds
ABT2-108-607 (other, VH dAb) VH: EVQLLESGGGLVQPGGSLRLSCAASGFTFAEYTMMWVRQAPGKGLEWVSRIGQDGKNTYYRSDVKGRFTISRDNSKNTLYLQMNSLRAEDTAVYYCAKYTGRVGVHHLFDYWGQGTLVTVSS	binds
ABT2-108-527 (other, VH dAb) VH: EVQLLESGGGLVQPGGSLRLSCAASGFTFAEYTMMWVRQAPGKGLEWVSRIGQDGKNTYYADSVKGRFTISRDNSKNTLYLQMNSLRAEDTAVYYCAKYTGRVFKHHLFDYWGQGTLVTVSS	binds
ABT2-108-518 (other, VH dAb) VH: EVQLLESGGGLVQPGGSLRLSCAASGFTFAEYTMMWVRQAPGKGLEWVSRIGQDGKNTYYRMDVKGRFTISRDNSKNTLYLQMNSLRAEDTAVYYCAKYTGRVGVHHLFDYWGQGTLVTVSS	binds
ABT2-108-606 (other, VH dAb) VH: EVQLLESGGGLVQPGGSLRLSCAASGFTFAEYTMMWVRQAPGKGLEWVSRIGQDGKNTYYRSSVKGRFTISRDNSKNTLYLQMNSLRAEDTAVYYCAKYTGRVGVHHLFDYWGQGTLVTVSS	binds
ABT2-108-603 (other, VH dAb) VH: EVQLLESGGGLVQPGGSLRLSCAASGFTFAEYTMMWVRQAPGKGLEWVSRITDAGKNTYYADSVKGRFTISRDNSKNTLYLQMNSLRAEDTAVYYCAKYTGRVGVHHLFDYWGQGTLVTVSS	binds

Results, then the binder that gave them:

binding result	Binder
binds	ABT2-108-605 (other, VH dAb) VH: EVQLLESGGGLVQPGGSLRLSCAASGFTFAEYTMMWVRQAPGKGLEWVSRIGQDGKNTYYREDVKGRFTISRDNSKNTLYLQMNSLRAEDTAVYYCAKYTGRVGVHHLFDYWGQGTLVTVSS
binds	ABT2-108-511 (other, VH dAb) VH: EVQLLESGGGLVQPGGSLRLSCAASGFTFAEYTMMWVRQAPGKGLEWVSRIGQDGKNTVIRDSVKGRFTISRDNSKNTLYLQMNSLRAEDTAVYYCAKYTGRVGVHHLFDYWGQGTLVTVSS
binds	ABT2-108-604 (other, VH dAb) VH: EVQLLESGGGLVQPGGSLRLSCAASGFTFAEYTMMWVRQAPGKGLEWVSRVTYDGKNTYYADSVKGRFTISRDNSKNTLYLQMNSLRAEDTAVYYCAKYTGRVGVHHLFDYWGQGTLVTVSS
binds	ABT2-108-601 (other, VH dAb) VH: EVQLLESGGGLVQPGGSLRLSCAASGFTFAEESWMWVRQAPGKGLEWVSRIGQDGKNTYYADSVKGRFTISRDNSKNTLYLQMNSLRAEDTAVYYCAKYTGRVGVHHLFDYWGQGTLVTVSS
binds	ABT2-108-509 (other, VH dAb) VH: EVQLLESGGGLVQPGGSLRLSCAASGFTFAEYTMMWVRQAPGKGLEWVSRITYSGKNTYYADSVKGRFTISRDNSKNTLYLQMNSLRAEDTAVYYCAKYTGRVGVHHLFDYWGQGTLVTVSS
binds	ABT2-108-612 (other, VH dAb) VH: EVQLLESGGGLVQPGGSLRLSCAASGFTFAEYTMMWVRQAPGKGLEWVSRIGQDGKNTYYADSVKGRFTISRDNSKNTLYLQMNSLRAEDTAVYYCAKYTGRIMGHHLFDYWGQGTLVTVSS
binds	ABT2-108-620x (other, VH dAb) VH: EVQLLESGGGLVQPGGSLRLSCAASGFTFAEESWMWVRQAPGKGLEWVSRIGQDGKNTYYREDVKGRFTISRDNSKNTLYLQMNSLRAEDTAVYYCAKYTGRIMGHHLFDYWGQGTLVTVSS
binds	ABT2-108-504 (other, VH dAb) VH: EVQLLESGGGLVQPGGSLRLSCAASGFTFADEGMMWVRQAPGKGLEWVSRIGQDGKNTYYADSVKGRFTISRDNSKNTLYLQMNSLRAEDTAVYYCAKYTGRVGVHHLFDYWGQGTLVTVSS
binds	ABT2-108-524 (other, VH dAb) VH: EVQLLESGGGLVQPGGSLRLSCAASGFTFAEYTMMWVRQAPGKGLEWVSRIGQDGKNTYYADSVKGRFTISRDNSKNTLYLQMNSLRAEDTAVYYCAKYTGRVFNHHLFDYWGQGTLVTVSS
binds	ABT2-108-620S (other, VH dAb) VH: EVQLLESGGGLVQPGGSLRLSCAASGFTFSEESWMWVRQAPGKGLEWVSRIGQDGKNTYYREDVKGRFTISRDNSKNTLYLQMNSLRAEDTAVYYCAKYTGRIMGHHLFDYWGQGTLVTVSS
